Results from paper PMC8913300 (2022).
No end group written: not given here.

T1: C terminus of Hsc70 interacting protein (CHIP) (human, UniProt Q9UNE7 1-303)
T1 chain: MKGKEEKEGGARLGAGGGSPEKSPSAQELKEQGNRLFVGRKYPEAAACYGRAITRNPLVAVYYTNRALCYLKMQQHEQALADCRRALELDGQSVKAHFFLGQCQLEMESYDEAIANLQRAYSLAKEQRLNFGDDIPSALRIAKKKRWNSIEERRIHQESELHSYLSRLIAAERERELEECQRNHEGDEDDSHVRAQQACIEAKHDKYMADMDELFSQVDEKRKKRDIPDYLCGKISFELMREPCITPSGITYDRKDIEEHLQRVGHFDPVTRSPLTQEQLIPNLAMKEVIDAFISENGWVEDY


Legend:
[1] = target: T1, C terminus of Hsc70 interacting protein …; test: FP
[2] = target: DnaJB4 (human, UniProt Q9UDY4 1-337); test: FP
DnaJB4, sequence (Q9UDY4 whole entry): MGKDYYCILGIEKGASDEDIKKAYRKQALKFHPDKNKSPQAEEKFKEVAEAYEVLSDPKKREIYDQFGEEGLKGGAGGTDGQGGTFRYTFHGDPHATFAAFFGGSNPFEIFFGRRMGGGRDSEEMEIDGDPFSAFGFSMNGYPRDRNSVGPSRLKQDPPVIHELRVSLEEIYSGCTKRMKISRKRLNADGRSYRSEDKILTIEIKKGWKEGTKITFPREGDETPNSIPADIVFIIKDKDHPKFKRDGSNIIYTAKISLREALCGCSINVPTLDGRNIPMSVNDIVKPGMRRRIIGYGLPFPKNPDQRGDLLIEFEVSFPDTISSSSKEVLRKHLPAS

Row | Binder | Kd [1] | Kd [2]
1 | GSGPTIEEVD-OH (not fully specified (N-terminus); printed as FITC-Ahx-GSGPTIEEVD) [Hsp72 tracer FITC-Ahx-GSGPTIEEVD] | 1.05 µM | 
2 | GSGPEIEEVD-OH (not fully specified (N-terminus); printed as FITC-Ahx-GSGPEIEEVD) [Hsp72 T636E tracer FITC-Ahx-GSGPEIEEVD] | 5.04 µM | 1.76 µM
